Source: patent publication US12064464B2, “Plantaricin NC8 alpha beta markedly enhances the effects of antibiotics” (priority 2018, dated 2024)
“Also recorded” adds a separate entry of the source.

Experiments:
[1] = system: S. aureus ATCC 29213 (MSSA); experiment: Broth microdilution MIC/MBC; type: cell-based, Staphylococcus aureus; conditions: Table 1, peptide alone, 20 h; no unit in table, μM
From the text: (§1) Staphylococcus aureus CCUG 35601 (MRSA, Culture Collection, University of Gothenburg) and Staphylococcus aureus ATCC 29213 (MSSA, ATCC, Manassas, VA). Staphylococcus epidermidis ATCC 12228 (ATCC, Manassas, VA), RP62A, N15 and 10 clinical isolates of Staphylococcus epidermidis that have previously been characterized. Isolated Escherichia coli, Enterococcus faecium (including VRE), Pseudomonas aeruginosa, Klebsiella pneumoniae, Enterobacter spp and Acinetobacter baumannii were obtained from Orebro University hospital. Isolated Streptococcus mutans, Streptococcus constellatus and Streptococcus anginosus were obtained from Malmo University. The bacteria were grown on Luria-Bertani (LB) agar plates, supplemented with 5% defibrinated horse blood, and incubated at 37° C. overnight. Single colonies were inoculated into 5 ml of LB broth and incubated on a shaker (300 rpm) at 37° C. overnight. The bacterial concentration was determined by viable count and adjusted to correlate with approximately 10^9 CFU/ml.
(§2) The broth microdilution method was used to determine minimal inhibitory concentration (MIC) and minimal bactericidal concentration (MBC). Two-fold serial dilutions of the peptides were used and the final concentrations ranged from 0.097-50 μM. […] The effect of bacteriocin-antibiotic combinations was accomplished by using the same concentration series of antibiotics with a constant concentration of PLNC8 αβ (3.1 μM) in all the wells. […] All experiments were repeated at least three times.

[2] = system: S. aureus CCUG 35601 (MRSA); experiment: Broth microdilution MIC/MBC; type: cell-based, Staphylococcus aureus
From the text: as §1, §2

[3] = system: S. epidermidis 117; experiment: Broth microdilution MIC/MBC; type: cell-based, Staphylococcus epidermidis; conditions: Table 1, peptide alone, 20 h; no unit in table, μM
From the text: as §1, §2

[4] = system: S. epidermidis 126 (hGISE strain); experiment: Broth microdilution MIC/MBC; type: cell-based, Staphylococcus epidermidis; conditions: Table 3, peptide alone
From the text: as §1, §2

[5] = system: S. epidermidis 154; experiment: Broth microdilution MIC/MBC; type: cell-based, Staphylococcus epidermidis; conditions: Table 3, peptide alone
From the text: as §1, §2

[6] = system: S. epidermidis 157 (hGISE strain); experiment: Broth microdilution MIC/MBC; type: cell-based, Staphylococcus epidermidis; conditions: Table 3, peptide alone
From the text: as §1, §2

[7] = system: S. epidermidis ATCC 12228; experiment: Broth microdilution MIC/MBC; type: cell-based, Staphylococcus epidermidis
From the text: as §1, §2

[8] = system: S. epidermidis N15; experiment: Broth microdilution MIC/MBC; type: cell-based, Staphylococcus epidermidis; conditions: Table 1, peptide alone, 20 h; no unit in table, μM
From the text: as §1, §2

[9] = system: S. epidermidis RP62A; experiment: Broth microdilution MIC/MBC; type: cell-based, Staphylococcus epidermidis; conditions: Table 1, peptide alone, 20 h; no unit in table, μM
From the text: as §1, §2

[10] = system: S. epidermidis ATCC 12228; experiment: Sytox Green uptake (membrane permeabilization); type: cell-based, Staphylococcus epidermidis; conditions: 5 μM
Protocol: The fluorescent dye Sytox® Green, which can only cross damaged membranes and fluoresce upon binding to nucleic acids, was used to study the antimicrobial activity of PLNC8 αβ on S. epidermidis, S. aureus (MSSA, MRSA) and Streptococcus spp. The bacteria were washed and resuspended in Krebs-Ringer Glucose buffer (KRG) (120 mM NaCl, 4.9 mM KCl, 1.2 mM MgSO4, 1.7 mM KH2PO4, 8.3 mM Na2HPO4, and 10 mM glucose, pH 7.3) and incubated in the presence or absence of different combinations of PLNC8 αβ in 96-well microtiter plates for 2 min. Images were captured with Olympus BX41 at 40× magnification.

[11] = system: human erythrocytes; experiment: Hemolysis; type: cell-based; conditions: 0.5-50 μM, 1 h; listed as L-PLNC8 αβ
Protocol: The hemolytic activity of the peptides was investigated by collecting blood from healthy volunteers in heparinized vacutainers. The blood was centrifuged at 600×g for 5 min and the erythrocyte pellet was washed three times in PBS. The cells were then suspended in PBS and added to 96-well plates (15% erythrocyte suspension/well), containing the peptides with two-fold serial dilution. The plates were incubated for 1 h at 37° C. followed by centrifugation for 5 min at 900×g and measurement of the supernatants at 540 nm. Haemolytic activity (%) was calculated by subtracting the negative control from all values and normalization against the positive control (0.5% Triton X-100), that was set to 100%. All experiments, each in duplicate, were repeated three times.

[12] = system: HaCaT cells infected with MSSA; experiment: Keratinocytes infected with MSSA: LDH, ELISA, RT-qPCR, scratch assay
Protocol: Human keratinocytes (HaCaT) were cultured in Dulbecco's modified Eagle medium (DMEM, Fisher Scientific, New York, USA) supplemented with 10% FBS (FBS, Invitrogen Ltd, Paisley, UK) incubated in a stable environment at 95% air, 5% CO2 and 37° C. The cells were used at passages 1-20.
(§3) HaCaT cells were cultured overnight in a 24-well plate at a seed-count of 2×10^5 cells per well. […] Co-stimulation was performed by infection of human keratinocytes, in the presence or absence of PLNC8 αβ, for 24 h, or infection of the cells for 1 h followed by addition of different concentrations of PLNC8 αβ for 6 h. Furthermore, infection of keratinocytes, with or without PLNC8 αβ, were monitored in real-time for 72 hours using IncuCyte Live-cell Analysis System. Bacterial load was quantified by measuring the fluorescence of green fluorescent protein (GFP) and cell viability was determined by measuring the fluorescent dye Draq7 that stains nuclei of dead cells.
ELISA was performed on supernatants retrieved from human keratinocytes that were exposed to MSSA and PLNC8 αβ. The levels of CXCL8 (Human IL-8 ELISA MAX Deluxe, Nordic Biosite, Sweden) and IL-6 (Human IL-6 ELISA MAX Deluxe, Nordic Biosite, Sweden) were quantified according to the manufacturer's instructions.

[13] = system: keratinocytes infected by S. aureus; experiment: IncuCyte live-cell analysis of infected keratinocytes; type: cell-based, human
Protocol: as §3

[14] = Table 1, peptide alone, 20 h, no unit in table, μM
[15] = infection 1 h, then peptide 6 h

B1: PLNC8 αβ: two-peptide class IIb bacteriocin of L. plantarum NC8: PLNC8 α (SEQ ID NO 1) with PLNC8 β (SEQ ID NO 2) (peptide)
alpha: DLTTKLWSSWGYYLGKKARWNLKHPYVQF
beta: SVPTSVYTLGIKILWSAYKHRKTIEKSFNKGFYH
modifications: Lactobacillus plantarum NC8
B1 was tested, and the MBC [1] was 25 µM, the MIC [1] was 12.5 µM and the MBC [2, 14] was 25 µM. For the same molecule, the MIC [2, 14] was 12.5 µM, the MBC ([2]; Table 3, MRSA, peptide alone) was 25 µM and the MIC ([2]; Table 3, MRSA, peptide alone) was 12.5 µM. For the same molecule, the MBC [3] was 12.5 µM, the MIC [3] was 12.5 µM and the MBC [4] was 50 µM. For the same molecule, the MIC [4] was 12.5 µM, the MBC [5] was 12.5 µM and the MIC [5] was 6.25 µM. The MBC [6] was greater than 50 µM, the MIC [6] was 12.5 µM and the “molar ratio PLNC8 α to PLNC8 β for inhibiting and killing” value ([7]; 20 h) was “molar ratio of 1:1 is most efficient at inhibiting and killing S. epidermidis; also recorded: ratios between 1:1 and 1:7 were also found to be effective”. For the same molecule, the “molar ratio PLNC8 α to PLNC8 β for inhibiting and killing” value ([7]; 20 h, listed as PLNC8αβ) was “molar ratio of 1:1 is most efficient at inhibiting and killing S. epidermidis”, the MBC [7, 14] was 12.5 µM and the MIC [7, 14] was 6.25 µM. It also gave an MBC ([7]; Table 2, peptide alone) of 12.5 µM, an MIC ([7]; Table 2, peptide alone) of 6.25 µM and an MBC [8] of 6.25 µM. For the same molecule, the MIC [8] was 6.25 µM, the MBC [9] was 6.25 µM and the MIC [9] was 6.25 µM. For the same molecule, the “perturbation of the plasma membrane of S. epidermidis” value [10] was “equally rapid (2 min)”, the hemolytic activity [11] was “no hemolytic activity was observed; also recorded: low hemolytic activity” and the “S. aureus-mediated cytotoxicity (LDH) and cell viability” value [12, 15] was “antagonized S. aureus-mediated cytotoxicity and inflammatory responses, and promoted cell viability”. For the same molecule, the “secretion of IL-6 and CXCL8” value [12, 15] was “significantly reduced”, the “secretion of IL-6 and CXCL8” value ([12]; infection with MSSA, 24 h) was “reduced bacteria-induced secretion of IL-6 and CXCL8” and the “wound healing (scratch assay)” value ([12]; infection with MSSA, 24 h) was “promoted wound healing in vitro of human keratinocytes following an infection with S. aureus”. For the same molecule, the “bacterial growth (GFP fluorescence) prevented and delayed” value ([13]; S. aureus MOI:0.1) was “up to 38 h”, the “time for which a single dose prevented bacterial growth and protected the cells” value ([13]; S. aureus MOI:0.1) was “up to 42 h” and the “time for which a single dose prevented bacterial growth and protected the cells” value ([13]; S. aureus MOI:1) was “up to 32 h”.
